The chains are these.
B1: OR4K15 (parent)
chain: GUUAACGGUCAUAGGCCAUGGAAACUAGGAGCACCAUUUCGCUGCCAGUGAAGAAAUGAACAAAGAAAAUCUGGGCCAGGCAGGCAUCAAAAGAAAUAGUCUUGCGCUCAACCAGAAAGUCUGUAAUCAUUUUAAGGGUA

Variants of B1 are the subject of the data set. Kind of data set: self-cleavage, relative activity (ratio to wild type); higher = more cleavage; in vitro, sequencing; the parent is a self-cleaving ribozyme.
G8A A117G: the self-cleavage was 2.27.

Take C10A A90G: the self-cleavage stood at 1.02.

Turning to U9C A78C, the self-cleavage amounted to 0.38.

Consider U9C A78U, for which the self-cleavage was found to be 0.56.

Regarding C6U A89G, the self-cleavage was determined as 1.13.

For the variant U9A A55G, the self-cleavage came out at 0.81.

With G7U U49C, the self-cleavage is 1.71.

For G7U A18U, the self-cleavage is 0.43.

Turning to C6U U43C, the self-cleavage is 1.58.

As for G7A U72C, the self-cleavage was 0.27.

In the case of C6U U132C, the self-cleavage came out at 0.63.

Consider C6U U132A, for which the self-cleavage worked out at 0.56.

As for C10U A111G, the self-cleavage turned out to be 0.07.

C6U A125C: the self-cleavage came to 1.

As for U9C A60G, the self-cleavage was 1.41.

For the variant U9C A60U, the self-cleavage came to 1.9.

With G7U A90G, the self-cleavage was found to be 2.21.

As for U9A U130C, the self-cleavage is 1.33.

Consider U9C U43C, for which the self-cleavage stood at 1.48.

Consider U9C G15A, for which the self-cleavage turned out to be 1.47.

With G8U A23G, the self-cleavage is 1.93.

As to U9A A67U, the self-cleavage was found to be 0.67.

As to U9A A92G, the self-cleavage is 1.08.

Turning to U9C G99U, the self-cleavage was determined as 0.63.

As for U9A A111U, the self-cleavage amounted to 0.19.

With G7U U103C, the self-cleavage was 0.65.

U9C A82G: the self-cleavage came to 0.58.

Take U9C A82U: the self-cleavage was found to be 0.35.

Regarding U9A A11G, the self-cleavage came out at 0.92.

Consider U9C U38G, for which the self-cleavage stood at 2.11.

Consider U9G A95G, for which the self-cleavage was found to be 0.99.

On to U9C C76U, for which the self-cleavage was 0.15.

U9C C76A: the self-cleavage came out at 0.07.

As to G7U U57C, the self-cleavage was 1.41.

For the variant U9A A27G, the self-cleavage was found to be 0.47.

For U9A U122C, the self-cleavage amounted to 0.88.

As to U9A U122A, the self-cleavage was determined as 1.22.

For the variant G7A A64G, the self-cleavage worked out at 1.18.

On to U9C A11U, for which the self-cleavage came out at 1.67.

In the case of C10A G20A, the self-cleavage is 0.86.

As to G7U A95G, the self-cleavage is 1.43.

In the case of U9C A55U, the self-cleavage was 1.16.

As for U9C A92C, the self-cleavage was 2.26.

Turning to U9C A92G, the self-cleavage is 0.82.

As to U9C A54G, the self-cleavage was found to be 1.53.

Regarding G7A A78G, the self-cleavage stood at 0.19.

For G7A A69U, the self-cleavage was 1.79.

For U9C, the self-cleavage amounted to 1.61.

On to U9A, for which the self-cleavage was 1.01.

For the variant U9G, the self-cleavage turned out to be 0.92.

U9A A110G: the self-cleavage is 0.22.

In the case of U9C A18U, the self-cleavage was 1.36.

With U9C A18C, the self-cleavage is 0.9.

As for U9A A24C, the self-cleavage amounted to 0.99.

On to U9A A24G, for which the self-cleavage was determined as 1.29.

C10U G106C: the self-cleavage came to 0.03.

U9C U19G: the self-cleavage stood at 2.03.

As to U9C U130C, the self-cleavage was found to be 1.05.

With G7A A86G, the self-cleavage turned out to be 0.94.

For U9C A47C, the self-cleavage came out at 1.02.

With U9C A47G, the self-cleavage stood at 1.08.

For U9C A47U, the self-cleavage stood at 1.1.

For U9C C40A, the self-cleavage worked out at 1.25.

In the case of G8A U9C, the self-cleavage turned out to be 1.16.

G7A A59G: the self-cleavage was 1.46.

G7U A114G: the self-cleavage was 0.16.

On to U9C G83A, for which the self-cleavage was 2.33.

Regarding U9A U49A, the self-cleavage was 1.

For the variant C6U A135G, the self-cleavage turned out to be 2.17.

In the case of C6U A66G, the self-cleavage is 1.33.

For G7A A90G, the self-cleavage is 1.26.

As to U9A A52C, the self-cleavage came out at 2.25.

On to U9C U131C, for which the self-cleavage came to 1.7.

Take U9C A36G: the self-cleavage turned out to be 0.96.

As for U9C U108G, the self-cleavage turned out to be 0.06.

Turning to U9C U108C, the self-cleavage came to 0.02.

As to G8C U122C, the self-cleavage was found to be 1.12.

As for U9A A89U, the self-cleavage amounted to 0.66.

Take G7A G137U: the self-cleavage amounted to 2.13.

With U9C C77U, the self-cleavage was 1.18.

Turning to G7A C40U, the self-cleavage came out at 1.81.

As for G7A A92G, the self-cleavage came to 1.8.

Turning to G7A A92U, the self-cleavage is 1.72.

C6U C77U: the self-cleavage turned out to be 0.34.

On to U9A A140U, for which the self-cleavage was determined as 1.31.

Turning to U9C A110G, the self-cleavage was 0.15.

Take G8A A129U: the self-cleavage came out at 1.63.

As to U9C A114G, the self-cleavage amounted to 0.64.

For G7A A68G, the self-cleavage amounted to 1.92.

In the case of A11C U72A, the self-cleavage is 0.17.

Regarding U9G A135U, the self-cleavage amounted to 0.85.

For G7A A62C, the self-cleavage came to 1.41.

With U9A A98G, the self-cleavage stood at 0.34.

C10U U108C: the self-cleavage is 0.06.

Take U9G U26C: the self-cleavage was determined as 0.34.

For U9C G84A, the self-cleavage came to 1.54.

With G7A U139C, the self-cleavage worked out at 1.82.

Consider A11C, for which the self-cleavage was 1.41.

Take G7A A89G: the self-cleavage was found to be 0.61.

For C10U A64G, the self-cleavage turned out to be 1.25.

Regarding U9A C88U, the self-cleavage stood at 0.82.

As for C10U U127C, the self-cleavage turned out to be 0.32.

In the case of G7A A56G, the self-cleavage was 1.78.

Turning to G7A U122C, the self-cleavage was determined as 0.84.

C10U A95C: the self-cleavage was found to be 0.6.

For U9G G119A, the self-cleavage turned out to be 1.48.

Consider U9C A111G, for which the self-cleavage was 0.02.

In the case of U9C A111U, the self-cleavage amounted to 0.09.

Consider U9A U87C, for which the self-cleavage is 0.85.

As to G8U A94G, the self-cleavage worked out at 1.98.

On to U9C C46A, for which the self-cleavage was 1.74.

On to U9C C46U, for which the self-cleavage is 1.03.

Turning to G7U A60U, the self-cleavage turned out to be 2.4.

In the case of G8A A92G, the self-cleavage came out at 1.56.

For the variant U9C A23C, the self-cleavage stood at 1.27.

Regarding U9C A23U, the self-cleavage is 1.07.

On to C6U G80A, for which the self-cleavage is 0.22.

U9G A24G: the self-cleavage was 1.4.

With G8A U49C, the self-cleavage was 2.37.

For the variant C10U A47G, the self-cleavage came out at 0.

As for U9A A30G, the self-cleavage turned out to be 0.98.

In the case of G7A U132C, the self-cleavage amounted to 1.2.

Turning to U9C G80A, the self-cleavage was determined as 0.34.

Regarding U9C U57A, the self-cleavage came to 1.6.

Turning to G8A U103G, the self-cleavage was found to be 0.03.

With G8A U103C, the self-cleavage is 1.61.

Regarding U9C A51G, the self-cleavage came to 1.27.

As for U9A A90G, the self-cleavage came out at 1.23.

Take U9C G58A: the self-cleavage worked out at 1.29.

Regarding U9C A59G, the self-cleavage was found to be 1.32.

On to G8A U57A, for which the self-cleavage was 2.18.

Turning to G7U C77U, the self-cleavage came to 1.9.

Consider U9A G41A, for which the self-cleavage worked out at 1.34.

As for G7U A116U, the self-cleavage amounted to 0.38.

For the variant A11C A22G, the self-cleavage was 0.94.

As for G8A C77U, the self-cleavage came out at 1.72.

On to A11C A125G, for which the self-cleavage was 0.5.

With U9A U43A, the self-cleavage is 0.83.

C10U U124A: the self-cleavage was found to be 0.36.

For U9C A90U, the self-cleavage was 2.21.

With U9C U122C, the self-cleavage is 1.15.

In the case of U9G U100C, the self-cleavage came out at 1.91.

For U9C U72A, the self-cleavage stood at 0.43.

As to G7A A140U, the self-cleavage was determined as 1.62.

As for U9G A54G, the self-cleavage came to 1.44.

Regarding G7U A86G, the self-cleavage stood at 1.64.

Turning to G7A U108C, the self-cleavage came out at 0.

For U9C A13U, the self-cleavage was determined as 1.22.

U9C A116G: the self-cleavage is 0.49.

Turning to U9C A116U, the self-cleavage amounted to 0.55.

As for G7A A110G, the self-cleavage was determined as 0.11.

As to G7A A110C, the self-cleavage was found to be 0.23.

As for C10U A117G, the self-cleavage stood at 2.34.

For the variant U9C A22G, the self-cleavage amounted to 1.21.

For the variant U9A U131C, the self-cleavage stood at 0.4.

As for G7A U19C, the self-cleavage stood at 1.14.

As to A11C A13G, the self-cleavage turned out to be 0.93.

For U9C A24G, the self-cleavage worked out at 1.33.

Take C10A A96G: the self-cleavage is 1.33.

Take U9A A96G: the self-cleavage worked out at 1.16.

Regarding G8A A55G, the self-cleavage was 2.14.

As to C10U A91G, the self-cleavage was determined as 0.68.

Take U9C A52U: the self-cleavage worked out at 1.23.

Take U9C A52G: the self-cleavage was found to be 1.63.

Regarding C10A A47U, the self-cleavage worked out at 1.

For the variant G8A A60G, the self-cleavage was 1.53.

For the variant U9C G29U, the self-cleavage turned out to be 2.61.

For the origin of these results see the RNAGym collection of RNA variant scans (doi:10.7554/elife.90254).
